Assay: soluble on expression in E. coli; label from the status in PepcDB or PDB records

Sequence	soluble on expression in E. coli
MGHHHHHHHHHHSSGHIDDDDKHMLEDPMATGDERFYAEHLMPTLQGLLDPESAHRLAVRFTSLGLLPRARFQDSDMLEVRVLGHKFRNPVGIAAGFDKHGEAVDGLYKMGFGFVEIGSVTPKPQEGNPRPRVFRLPEDQAVINRYGFNSHGLSVVEHRLRARQQKQAKLTEDGLPLGVNLGKNKTSVDAAEDYAEGVRVLGPLADYLVVNVSSPNTAGLRSLQGKAELRRLLTKVLQERDGLRRVHRPAVLVKIAPDLTSQDKEDIASVVKELGIDGLIVTNTTVSRPAGLQGALRSETGGLSGKPLRDLSTQTIREMYALTQGRVPIIGVGGVSSGQDALEKIRAGASLVQLYTALTFWGPPVVGKVKRELEALLKEQGFGGVTDAIGADHRR	soluble
MGHHHHHHHHHHSSGHIEGRHMILLEKTQEKKINDKEELIVKEEVETNWDYGCNPYERKIEDLIKYGVVVVDKPRGPTSHEVSTWVKKILNLDKAGHGGTLDPKVTGVLPVALERATKTIPMWHIPPKEYVCLMHLHRDASEEDILRVFKEFTGRIYQRPPLKAAVKRRLRIRKIHELELLDKDGKDVLFRVKCQSGTYIRKLCEDIGEALGTSAHMQELRRTKSGCFEEKDAVYLQDLLDAYVFWKEDGDEEELRRVIKPMEYGLRHLKKVVVKDSAVDAICHGADVYVRGIAKLSKGIGKGETVLVETLKGEAVAVGKALMNTKEILNADKGVAVDVERVYMDRGTYPRMWKRKK	soluble
MGHHHHHHHSSENLYFQGHMRKIRVGLIFGGKSAEHEVSLQSARNILDALDPQRFEPVLIGIDKQGQWHVNDPDSFLLHADDPARIALHRSGRGVALLPGAQQQQLRPIQPEQALAQIDVVFPIVHGTLGEDGSLQGLLRMANLPFVGSGVLGSAVAMDKDMAKRVLRDARLAVAPFVCFDRHTAAHADVDTLIAQLGLPLFVKPANQGSSVGVSQVRTADAFAAALALALAYDHKVLVEAAVAGREIECAVLGNAVPHASVCGEVVVHDAFYSYATKYISEHGAEIVIPADIDAQTQQRIQQIAVQAYQALGCAGMARVDVFLCADGRIVINEVNTLPGFTRISVYPKLWQASGLDYRGLITRLIELALERHTDDQLLRSAVELH	soluble
MGHHHHHHMPEINTNHLDKQQVQLLAEMCILIDENDNKIGAETKKNCHLNENIEKGLLHRAFSVFLFNTENKLLLQQRSDAKITFPGCFTNTCCSHPLSNPAELEESDALGVRRAAQRRLKAELGIPLEEVPPEEINYLTRIHYKAQSDGIWGEHEIDYILLVRMNVTLNPDPNEIKSYCYVSKEELKELLKKAASGEIKITPWFKIIAATFLFKWWDNLNHLNQFVDHEKIYRM	soluble
MGHHHHHHQQIMKGNFSSFMQKEIFEQPESVVNTMRGRVNFDDYTVNLGGLKDHIKEIQRCRRLILIACGTSYHAGVATRQVLEELTELPVMVELASDFLDRNTPVFRDDVCFFLSQSGETADTLMGLRYCKERGALTVGITNTVGSSISRETDCGVHINAGPEIGVASTKAYTSQFVSLVMFALMMCDDRISMQERRKEIMLGLKRLPDLIKEVLSMDDEIQKLATELYHQKSVLIMGRGYHYATCLEGALKIKEITYMHSEGILAGELKHGPLALVDKLMPVIMIIMRDHTYAKCQNALQQVVARQGRPVVICDKEDTETIKNTKRTIKVPHSVDCLQGILSVIPLQLLAFHLAVLRGYDVDFPRNLAKSVTVE	soluble
MGHHHHHHSHANSIDLIGYVHQPVQFDSTLDGKFWAGTVISHEPSSDSKSESDSSSNFWIPVLFEGDLAHTANSYLKKNDRVHITGQILGDVIQSGANSDQAHVQLFKSFHGSFSHQVMVRD	not soluble
MGHHHHHHSHGTRQELSGNTKSRESIQEPRSDYYNHEVPDIDLSDCEFPHVIEIYDFPQEFRTEDLLRVFCSYQKKGFDIKWVDDTHALGVFSSPITARDALGIKHTMVKIRPLSQATRAAKAKARAYAEFLQPAKERPETSAALARRLVISALGVRSKQSKTEREAELKKLQEARERKRLEAKQREDIWEGRDQSTV	soluble
MGHHHHHHSHIAFLGPKGSYSHLAARQYAARHFEQFIESGCAKFADIFNQVETGQADYAVVPIENTSSGAINDVYDLLQHTSLSIVGEMTLTIDHCLLVSGTTDLSTINTVYSHPQPFQQCSKFLNRYPHWKIEYTESTSAAMEKVAQAKSPHVAALGSEAGGTLYGLQVLERIEANQRQNFTRFVVLARKAI	soluble
MGHHHHHHSHKHPFIVELAYAFQTGGKLYLILECLSGGELFTHLEREGIFLEDTACFYLAEITLALGHLHSQGIIYRDLKPENIMLSSQGHIKLTDFGLCKESIHEGAVTHTFCGTIEYMAPEILVRSGHNRAVDWWSLGALMYDMLTGSPPFTAENRKKTMDKIIRGKLALPPYLTPDARDLVKKFLKRNP	not soluble
MGHHHHHHSHMAAGTLYTYPENWRAFKALIAAQYSGAQVRVLSAPPHFHFGQTNRTPEFLRKFPAGKVPAFEGDDGFCVFESNAIAYYVSNEELRGSTPEAAAQVVQWVSFADSDIVPPASTWVFPTLGIMHHNKQATENAKEEVRRILGLLDAYLKTRTFLVGERVTLADITVVCTLLWLYKQVLEPSFRQAFPNTNRWFLTCINQPQFRAVLGEVKLCEKMAQFDAKKFA	not soluble
MGHHHHHHSHMAATKRKRRGGFAVQAKKPKRNEIDAEPPAKRHATAEEVEEEERDRIPGPVCKGKWKNKERILIFSSRGINFRTRHLMQDLRMLMPHSKADTKMDRKDKLFVINEVCEMKNCNKCIYFEAKKKQDLYMW	not soluble
MGHHHHHHSHMANSAGSMANSAGSMKEGKHFVLVHGACHGGWSWYKLKPLLEAAGHKVTALDLAASGTDLRKIEELRTLYDYTLPLMELMESLSADEKVILVGHSLGGMNLGLAMEKYPQKIYAAVFLAAFMPDSVHNSSFVLEQYNERTPAENWLDTQFLPYGSPEEPLTSMFFGPKFLAHKLYQLCSPEDLALASSLVRPSSLFMEDLSKAKYFTDERFGSVKRVYIVCTEDKGIPEEFQRWQIDNIGVTEAIEIKGADHMAMLCEPQKLCASLLEIAHKYN	soluble
MGHHHHHHSHMAVRRPGCFLCREEAADLSSLKSMLDQLGVPLYAVVKEHIRTEVKDFQPYFKGEIFLDEKKKFYGPQRRKMMFMGFIRLGVWYNFFRAWNGGFSGNLEGEGFILGGVFVVGSGKQGILLEHREKEFGDKVNLLSVLEAAKMIKPQTLASEKK	not soluble
MGHHHHHHSHMCSWASYMTNSPTLIVMIGLPARGKTYVSKKLTRYLNWIGVPTKVFNLGVYRREAVKSYKSYDFFRHDNEEAMKIRKQCALVALEDVKAYLTEENGQIAVFDATNTTRERRDMILNFAEQNSFKVFFVESVCDDPDVIAANILEVKVSSPDYPERNRENVMEDFLKRIECYKVTYRPLDPDNYDKDLSFIKVINVGQRFLVNRVQDYIQSKIVYYLMNIHVQPRTIYLCRHGESEFN	soluble
MGHHHHHHSHMDCCASRGCSVPTGPATTICSSDKSCRCGVCLPSTCPHTVWLLEPTCCDNCPPPCHIPQPCVPTCFLLNSCQPTPGLETLNLTTFTQPCCEPCLPRGC	not soluble
MGHHHHHHSHMDDPLLVELQAEDYWYEAYNMRTGARGVFPAYYAIEVTKEPEHMAALAKNSDWVDQFRVKFLGSVQVPYHKGNDVLCAAMQKIATTRRLTVHFNPPSSCVLEISVRGVKIGVKADDSQEAKGNKCSHFFQLKNISFCGYHPKNNKYFGFITKHPADHRFACHVFVSEDSTKALAESVGRAFQQFYKQFVEYTCPT	soluble
MGHHHHHHSHMDFSHWPHVLPLEPGGCIDFQTENSSRHCLVTYRPDKNHTTIRSVLMEMSYRLDDTGNPICSCQPVHTFFGGPTCKLLTKNAIFQSPENDGNILVCTGDEAANSALLWDAASGSLLQDLRTDQPVLDICPFEVNRNSYLATLTEKMVHIYKWE	not soluble
MGHHHHHHSHMDQRQRRILGQPLSIPTSQPKQKRTSMISFFSKVSWKLRFQKREPLKNVFFILAERARDPSAKKRHMAMRNLGTMAYEAPDKVRKYKKIVLDLLVYGLYDPVNLEVIHESMKTLTVVLGKIQGKGLGSFFIDIALQTRTLLDDENDSLRYSAFVLFGQLAAFAGRKWKKFFTSQVKQTRDSLLIHLQDRNPQVAKACKTTFQACSPYLKLKEEYSFQSEEDQRNTKLYQQLSHYHPEILQFFYANKIL	not soluble
MGHHHHHHSHMEKCSVGGLELTEQTPALLGNMAMATSLMDIGDSFGHPACPLVSRSRNSPVEDDDDDDDVVFIESIQPPSISAPAIADQRNFIFASSKNEKPQGNYSVIPPSSRDLASQKGNISETIVIDDEEDVETNGGAEKKSSFFIEWGLPGTKNKTNDLDFSTSSLSRSKTKTGVRPFNPGRMNVAGDLFQNGEFATHHSPEMHLQRRLMSFFQ	not soluble
MGHHHHHHSHMEVVLPLDPAVPAPLCPHGPTLLFVKVTQGKEETRRFYACSACRDRKDCNFFQWEDEKLSGARLAAREAHNRRCQPPLSRTQCVERYLKFIELPLTQRKFCQTCQQLLLPDDWGQHSEHQVLGNVSITQLRRPSQLLYPLENKKTNAQYLFADRSCQFLVDLLSALGFRRVLCVGTPRLHELIKLTASGDKKSNIKSLLLDIDFR	not soluble
MGHHHHHHSHMEYHTMIRELILDGSLQLIQEGLKSGFLYPLFEKQDKGSKPITLPLDACSLSELCEMAKHLPSLNEMEHQTLQLVEEDTSVTEQDLFLRVVENNSSFTKVITLMGQKYLLPPKSSFLLSDISCMQPLLNYRKTFDVIVIDPPWQNKSVKRSNRYSYLSPLQIQQIPIPKLAAPNCLLVTWVTNRQKHLRFIKEELLSLLVCGGSC	not soluble
MGHHHHHHSHMGDSRRDVLHEPAIALLSSPQTQSRLQIDAFIARRCWGSQWDITGYIHQQDFPTAVFIGFSNEFNICIPHPFTEWLQCVRKYSQSWGVRKGQRHIRYGMCSERTHHLSRTYSSLLEREEKLAFYGVLTMCQIWSET	not soluble
MGHHHHHHSHMIKYYNRKTKQYEIEKVAGENYLNWTYSSPIGMSFLEALIKKKAFSSIYGSFCDSKISKGKVKKFIDSFDIDILESEKKPEAFKSFNDFFTRKLTKEARPFSTNKEILISPGDGRLLVYENIDLDNLVEIKGMGYSLKELIKDEKISSKYKNGICMILRLCPTDYHRFHFVDSGVCSATSKIKGSYYSVNPIALNKVKRLFCENKREWSILKSDNFKDILYIEVGATCVGSIIQTYKENTKVNKGDEKGYFKFGGSTVVLFFEKDSVKIDEDILEQTRLGYETKVFMGESIGKK	soluble
MGHHHHHHSHMKEDKEVQTGYMNAQIEIIPCKICGDKSSGIHYGVITCEGCKGFFRRSQQSNATYSCPRQKNCLIDRTSRNRCQHCRLQKCLAVGMSRDAVKFGRMSKKQRDSLYAEVQKHRMQQQQRDHQQQPG	soluble
MGHHHHHHSHMKNLVLKIISGSFPPVSLHYSYDLRSLVSQLFKRNPRDRPSVNSILEKGFIAKRIEKFLSPQLIAEEFCLKTFSKFGSQPIPAKRPASGQNSISVMPAQKITKPAAKYGIPLAYKKYGDKKLHEKKPLQKHKQAHQTPEKRVNTGEERRKISEEAARKRRLEFIEKEKKQKDQIISLMKAEQMKRQEKERLERINRAREQGWRNVLSAGGSGEVKAPFLGSGGTIAPSSFSSRGQYEHYHAIFDQMQQQRAEDNEAKWKREIYGRGLPERGILPGVRPGFPYGAAGHHHFPDADDIRKTLKRLKAVSKQANANRLDCDDP	not soluble
MGHHHHHHSHMKPNVGQGSTSVQTAMESELGESSATINKRLCKSTIELSENSLLPASSMLTGTQSLLQPHLERVAIDALQLCCLLLPPPNRRKLQLLMRMISRMSQNVDMPKLHDAMGTRSLMIHTFSRCVLCCAEEVDLDELLAGRLVSFLMDHHQEILQVPSYLQTAVEKHLDYLKKGHIENPGDGLFAPLPTYPYCKQISAQEFDEQKVSTSQAAIAELLENIIKNRSLPLKEKRKKLKQFQKEYPLIYQKRFPTTESEAALFGDKPTIKQPMLILRKPKFRSLR	not soluble
